The text below walks through data of publication PMC5101508 (Scientific Reports, 2016).

What is called Kd is the equilibrium constant for the complex coming apart. By koff is commonly meant a measure of how fast the partners let go of each other.

The subject of assay [1] is EGFP-CEM-NKr-CCR5-SNAP cells sensitized with AT-2–inactivated HIV-1 BaL. Put plainly: RFADCC, virion bound assay. Format: cell-based. To be noted: curves normalized for plateau cytotoxicity values using C11 (Fig. 5D); two independent experiments in duplicate. The text has this:
(§1) EGFP-CEM-NKr-CCR5-SNAP cells sensitized with AT-2–inactivated HIV-1 BaL were (C) stained for antibody binding and (D) ADCC using the modified rapid fluorometric antibody-mediated cytotoxicity assay (RFADCC)[35]. Cluster A CD4i antibodies A32, N5-i5, C11 and Synagis were used as controls. The plot represents a mean of two independent experiments normalized to the average A32 values with error bars showing the range between experiments.
(§2) In brief, EGFP-CEM-NKr-CCR5-SNAP target cells were first stained with the SNAP-Surface Alexa Fluor 647 dye, washed twice and spinoculated with HIV-1 BaL AT-2 inactivated virus at 2000 RPM for 2 h at 12 °C. Subsequently, AT-2 BaLsensitized double-stained targets were washed twice with cold R10 medium and then subjected to testing for antibody binding (detected with PE-labeled mouse anti-human IgG secondary antibody, BD Bioscence cat. 555787) and RFADCC assay, following the previously described protocol. Samples were collected on a BD Fortessa Special Order instrument (BD Biosciences) and analyzed using FlowJo software (Tree Star, Ashland, OR). The HIV-1BaL AT-2 inactivated virus was generously provided by Dr. Jeff Lifson, NCI, Frederick. The ADCC data represent the typical results obtained in two independent experiments done in duplicate and the bars indicate the range of the values of cytotoxicity.

Assay [2] addresses monoclonal antibody F240 (IgG) (human (isolated from an HIV infected individual)). Put plainly: SPR. For orientation: SPR reads the build-up and loss of mass on a sensor chip optically.
Assay [3] concerns the target gp41 583-618 peptide, oxidized form (Cys598-Cys604 disulfide) (HIV-1 (clade B, strain BaL)). Kind of assay: ITC. A general note: In ITC the heat of successive injections is recorded.
For assay [4], the target named is HIV-1 BaL envelope glycoprotein (Env, gp120/gp41) on AT-2-inactivated virions (HIV-1 (clade B, strain BaL)). Kind of assay: fluorescence correlation spectroscopy (FCS); Alexa 647 labelled mAb (5 μg/ml) incubated with 10 μg/ml of free AT-2-inactivated HIV-1 BaL virions for 90 minutes at 37 °C; in solution.
The test system of assay [5] is mAb F240. Kind of assay: Surface Plasmon Resonance (SPR) of gp41 peptide on captured F240 IgG. In kind it is binding. To be noted: reduced vs oxidized peptide.
Protocol: Sensorgrams were obtained at room temperature for mAb F240 immobilized on a Protein A chip with 0–200 nM concentrations of gp41 peptide passed over the chip. […] Standard deviations of ka, kd and KD for two experiments are shown.
The binding affinity and kinetics of F240 for gp41_583–618 peptide and gp41_583–618 peptide pretreated to reduce C^598-C^604 disulfide bond was assessed by Surface Plasmon Resonance on a Biacore T-100 (GE Healthcare) at 25 °C. The reduced gp41_583–618 was generated by treating the oxidized form of the same peptide with 0.05 M of TCEP. Protein A was first immobilized onto the second of the two flow cells on a CM5 chip to ~3000 response units (RU) and the first flow cell blocked with a standard amine coupling protocol (GE Healthcare). F240 IgG to be evaluated was then captured onto the second flow cell by flowing a 5–10 nM solution of mAb at 10 μl/min flow rate for 30 seconds. […] Varying concentrations (0–200 nM) of the oxidized and reduced forms of the peptide were then passed over both flow cells at a flow rate of 30 μl/min for 200 seconds and allowed to dissociate by passing buffer over both cells at the same flow rate for 800 seconds. The cells were regenerated with a 30 second injection of 0.1 M glycine pH 3.0 with a flow rate of 100 μl/min and the antibody reloaded onto the second flow cell for each peptide concentration. […]
The target in assay [6] is mAb F240. Kind of assay: Isothermal Titration Calorimetry (ITC) of F240 with gp41 peptides. Format: binding. To be noted: 25 °C, 1X PBS pH 7.4, F240 111 μM in syringe, peptide 11 μM in cell, single-site model.
Protocol: Sensorgrams were obtained at room temperature for mAb F240 immobilized on a Protein A chip with 0–200 nM concentrations of gp41 peptide passed over the chip. […] Standard deviations of ka, kd and KD for two experiments are shown. […] The binding isotherms were fitted to a one-site binding model using Origin for ITC version 7.0383 (MicroCal). The fitting yields the stoichiometry (N), the binding constant (KD), and the enthalpy (ΔH) of the binding reaction.
The ITC experiments were performed using an ITC200 system (Micro-Cal) as previously described by Bradshaw et al.[61], at 25 °C in a 1X PBS buffer pH 7.4. F240 was dialyzed against this buffer overnight before the experiment. The peptides were dissolved in the final dialysis buffer. […] Titrations were performed at 25 °C with 17 injections of 2.42 μl aliquots, with 210–240 second intervals between injections. Heats of dilutions were measured and subtracted from each data set. Data were corrected for the heat of dilution and fitted using a nonlinear least-squares routine using a single-site binding model with Origin for ITC version 7.0383 (MicroCal).
Assay [7] has as its system EGFP-CEM-NKr-CCR5-SNAP cells infected with BaL infectious molecular clone. Put plainly: Cell-surface staining of IMC BaL infected EGFP-CEM-NKr-CCR5-SNAP cells. Format: cell-based, HIV-1 BaL. Here is the method: For BaL-infected cells two gates were delineated: p24+/CD4− and p24+low/CD4+; and one for Mock p24−/CD4+. The plot represents a mean of two independent experiments normalized to the average A32 values with error bars showing the range between experiments.
EGFP-CEM-NKr-CCR5-SNAP cells were spinoculated for 2 hr at 2000 RPM at 12 °C in 96-well U-bottom plate (5 × 10^5 cells/well) with 240 ng of IMC BaL virus (control cells were incubated without virus), as measured by HIV-1 p24 antigen capture ELISA. Afterward, the viral inoculum was diluted 1:2 in R10 medium containing G418 1.5 mg/ml, and cells and virus were placed into one well of a 12-well flat-bottom plate. The cells were then cultured adding fresh medium every 2 days. […] After a wash, cells were then fixed and permeabilized using the Cytofix/Cytoperm Kit (BD-PharMingen, San Diego, Calif.) for 20 min at 4 °C. Subsequently, permeabilized cells were washed once with the buffer provided by the manufacturer, resuspended and stained for 30 min at RT with 5 μl (PE)-conjugated mouse anti-p24 mAb (KC57-RD1; Beckman Coulter, Inc.). After two additional washes, HIV-1- or mock were fixed in PFA 2% analyzed with an LSRII Fortessa flow cytometer (BDBiosciences) and data analysis was performed with FlowJo software (Tree Star,Inc., San Carlos, Calif.). The plot represents a mean of two independent experiments normalized to the average A32 values with error bars showing the range between experiments.

Assay [8] has as its system EGFP-CEM-NKr-CCR5-SNAP cells sensitized with AT-2–inactivated HIV-1 BaL. Put plainly: Antibody binding (staining) to virion-sensitized cells, virion bound assay. Format: cell-based. To be noted: Fig. 5C; PE-labeled anti-human IgG secondary antibody; mean of two independent experiments normalized to A32.
Excerpt: as §1, §2

Assay [9] deals with T1, gp41 583-618 peptide, oxidized form (Cys598-Cys604 disulfide) (HIV-1 (clade B, strain BaL), disulfide bond between Cys598 and Cys604 (oxidized peptide)).
T1 peptide: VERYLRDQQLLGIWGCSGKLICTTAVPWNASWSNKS
Put plainly: SPR.

Assay [10] deals with T2, gp41 583-618 peptide, reduced form (pretreated with TCEP) (HIV-1 (clade B, strain BaL)).
T2 peptide: T1 peptide
Put plainly: SPR; peptide pretreated with TCEP.

Assay [11] deals with T1, gp41 583-618 peptide, oxidized form …. Kind of assay: SPR.
Assay [12] concerns the target T2, gp41 583-618 peptide, reduced form …. Kind of assay: SPR; peptide pretreated with TCEP.

For “Synagis: Synagis (MedImmune), control mAb [reference compound]”, the “AUC (Area Under Curve), ADCC” value in [1] came to 18.2 cytotoxicity/μg/ml.

“gp41 583-618 peptide, reduced form (pretreated with TCEP)” had a fold lower affinity than the oxidized peptide in assay [2] of 14 fold.

As to monoclonal antibody F240 (IgG), in assay [3], the Ka was found to be 2.95e+07 M⁻¹ and the dissociation constant Kd was determined as 34 nM. The percent of binding in assay [4] came out at 40%.

“VERYLRDQQL[10] LGIWGCSGKL[20] ICTTAVPWNA[30] SWSNKS [reduced gp41_583–618, gp41_583–618 pretreated with TCEP to reduce the C598-C604 disulfide bond]”: the “lower affinity as compared to its oxidized form” value with mAb F240 [5] is “approximately 14 fold”.

For “VERYLRDQQL[10] LGIWGCSGKL[20] ICTTAVPWNA[30] SWSNKS (disulfide) [gp41_583–618]”, the “binding constant KB” value at mAb F240 [6] is 2.95e+07 M⁻¹. At mAb F240 [6] (read-out: dissociation constant KD), the Kd worked out at 34 nM.

B1: N5-i5: Cluster A CD4i antibody used as control (antibody, V domains shown)
VH: EVQLVESGGGLVQPGGSLRLSCAASGFTFSTYAMSWVRQAPGKGLEWVSSINNSGRNTFSADSVKGRFTISRDNSKNTLFLVMNSLRAEDTAVYYCAKDLRLGGGSDYWGQGTLVTVSS
VL: QSALTQPASVSGSPGQSITISCTGTSSDVGSYNFVSWYQQHPGKAPKLMIYEVSERPSGISNRFSGSKSGNTASLTISGLQAEDEADYYCSSYAGSTTFRVFGGGTKLTVR
Consider B1, for which the “AUC (Area Under Curve), ADCC” value in [1] came out at 374.8 cytotoxicity/μg/ml. In addition, the “binding to mock-infected cells” value in [7] (mock p24−/CD4+ population) is listed as “did not recognize”. The “binding to productively infected cells” value in [7] (p24+/CD4− population, 5 days post-infection) is reported as “did not recognize”. Moreover, in [7] (p24+low/CD4+ population, 5 days post-infection), the “binding to CD4-preserving cells with virus” value was “very effectively stained”. For the same molecule, the “recognition (binding) of virion-sensitized cells, in words” value in [8] was “Lower than reported in ref. [35]”.

B2: monoclonal antibody F240 (IgG) (antibody, V domains shown)
VH: QVQLVQSGGGVVKPGASSRLSCAASGFTFTDYYMSWIRQAPGKGLEWVAYITKDGSEKKYADSLQHRFAVSRDNANNLVFLQLNTVEDDDTGVYYCARDDGYYDRSGYYGVFDLWGQGIRVTVSS
VL: EFLLTQSPDSLAVTLGETATITCRSSRNILHSLNNKNYLAWYQQRPGQAPKLLVIWASMRVSGVADRFSGSGSGTDFALTISSLQPEDAAVYYCQHYYTTHRTFGQGTRVEIR
modifications: Alexa Fluor 647 on primary amines (only in the FCS experiments and in the staining of IMC BaL-infected cells) | Alexa Fluor 647 on primary amines (only in the FCS experiments and in the staining of IMC BaL-infected cells)
B2: the values for the Kd in assay [9] and in assay [10] were 4.4 nM and 60 nM, respectively. For the same molecule, the values for the koff in assay [11] and in assay [12] were 0.00083 s⁻¹ and 0.0028 s⁻¹, respectively.
